From US20200268910A1 (SANFORD BURNHAM PREBYS MEDICAL DISCOVERY INSTITUTE, published 2020)
Bridge positions count the residues as written; N and C are the ends. Ends that are not written are not given here. FAM = 5(6)-carboxyfluorescein; Ahx = NCCCCCC(=O)O

What was measured:
[1] = target: mouse CD206 on peritoneal cells from 4T1 tumor-bearing mice (mouse) (UniProt Q61830); assay: flow cytometry on peritoneal cells of 4T1 tumor mice; 10 µg/mL antibody, then FAM-UNO at 0.5 µg/mL
[2] = target: T1, recombinant human macrophage mannose receptor rhMMR/CD206 (human, UniProt P22897 19-1383, limits assumed); assay: fluorescence anisotropy, in solution, kinetic mode
T1 construct: Bought recombinant protein; also called human recombinant CD206; hCD206
T1 sequence (looked up): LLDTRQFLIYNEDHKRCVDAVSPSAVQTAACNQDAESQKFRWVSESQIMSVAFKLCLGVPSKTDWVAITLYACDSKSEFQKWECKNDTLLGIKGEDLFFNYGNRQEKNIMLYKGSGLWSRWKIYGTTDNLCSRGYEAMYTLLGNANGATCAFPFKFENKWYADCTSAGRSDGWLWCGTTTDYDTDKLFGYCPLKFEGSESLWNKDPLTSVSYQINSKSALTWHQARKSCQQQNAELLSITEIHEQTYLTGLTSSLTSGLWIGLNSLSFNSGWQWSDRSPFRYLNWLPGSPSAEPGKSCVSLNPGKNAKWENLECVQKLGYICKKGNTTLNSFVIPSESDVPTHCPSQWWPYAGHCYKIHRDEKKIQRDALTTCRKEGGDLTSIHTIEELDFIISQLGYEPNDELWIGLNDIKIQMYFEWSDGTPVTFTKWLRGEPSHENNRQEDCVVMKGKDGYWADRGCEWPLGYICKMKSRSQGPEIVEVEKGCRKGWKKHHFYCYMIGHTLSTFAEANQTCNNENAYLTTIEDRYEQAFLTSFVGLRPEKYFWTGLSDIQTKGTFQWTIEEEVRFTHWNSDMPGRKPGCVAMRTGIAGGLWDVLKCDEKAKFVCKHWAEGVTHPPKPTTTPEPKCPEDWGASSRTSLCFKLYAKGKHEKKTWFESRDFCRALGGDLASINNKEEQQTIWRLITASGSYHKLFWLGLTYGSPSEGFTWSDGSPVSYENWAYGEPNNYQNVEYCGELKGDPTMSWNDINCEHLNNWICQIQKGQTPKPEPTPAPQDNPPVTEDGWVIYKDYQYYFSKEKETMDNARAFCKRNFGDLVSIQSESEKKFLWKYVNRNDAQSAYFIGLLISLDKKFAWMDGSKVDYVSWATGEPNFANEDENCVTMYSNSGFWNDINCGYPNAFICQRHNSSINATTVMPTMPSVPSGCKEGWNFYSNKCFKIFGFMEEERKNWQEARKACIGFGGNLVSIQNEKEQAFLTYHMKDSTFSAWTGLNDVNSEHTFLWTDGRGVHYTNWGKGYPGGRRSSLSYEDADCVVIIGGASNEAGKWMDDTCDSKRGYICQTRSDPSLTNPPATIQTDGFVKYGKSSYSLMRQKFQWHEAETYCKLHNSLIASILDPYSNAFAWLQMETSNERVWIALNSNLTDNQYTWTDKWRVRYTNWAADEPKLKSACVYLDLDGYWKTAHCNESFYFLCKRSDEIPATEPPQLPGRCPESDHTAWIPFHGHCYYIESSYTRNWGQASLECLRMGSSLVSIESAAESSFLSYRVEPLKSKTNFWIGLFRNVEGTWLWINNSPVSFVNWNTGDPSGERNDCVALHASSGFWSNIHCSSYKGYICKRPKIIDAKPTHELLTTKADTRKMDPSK

[3] = target: T2, mouse CD206 on peritoneal cells from 4T1 tumor-bearing mice (mouse, UniProt Q61830 20-1456); assay: flow cytometry on peritoneal cells, legend of FIG. 4D
T2 construct: whole, on cells; Primary cells that carry many other proteins; also called MRC1; mannose receptor
T2 sequence (looked up): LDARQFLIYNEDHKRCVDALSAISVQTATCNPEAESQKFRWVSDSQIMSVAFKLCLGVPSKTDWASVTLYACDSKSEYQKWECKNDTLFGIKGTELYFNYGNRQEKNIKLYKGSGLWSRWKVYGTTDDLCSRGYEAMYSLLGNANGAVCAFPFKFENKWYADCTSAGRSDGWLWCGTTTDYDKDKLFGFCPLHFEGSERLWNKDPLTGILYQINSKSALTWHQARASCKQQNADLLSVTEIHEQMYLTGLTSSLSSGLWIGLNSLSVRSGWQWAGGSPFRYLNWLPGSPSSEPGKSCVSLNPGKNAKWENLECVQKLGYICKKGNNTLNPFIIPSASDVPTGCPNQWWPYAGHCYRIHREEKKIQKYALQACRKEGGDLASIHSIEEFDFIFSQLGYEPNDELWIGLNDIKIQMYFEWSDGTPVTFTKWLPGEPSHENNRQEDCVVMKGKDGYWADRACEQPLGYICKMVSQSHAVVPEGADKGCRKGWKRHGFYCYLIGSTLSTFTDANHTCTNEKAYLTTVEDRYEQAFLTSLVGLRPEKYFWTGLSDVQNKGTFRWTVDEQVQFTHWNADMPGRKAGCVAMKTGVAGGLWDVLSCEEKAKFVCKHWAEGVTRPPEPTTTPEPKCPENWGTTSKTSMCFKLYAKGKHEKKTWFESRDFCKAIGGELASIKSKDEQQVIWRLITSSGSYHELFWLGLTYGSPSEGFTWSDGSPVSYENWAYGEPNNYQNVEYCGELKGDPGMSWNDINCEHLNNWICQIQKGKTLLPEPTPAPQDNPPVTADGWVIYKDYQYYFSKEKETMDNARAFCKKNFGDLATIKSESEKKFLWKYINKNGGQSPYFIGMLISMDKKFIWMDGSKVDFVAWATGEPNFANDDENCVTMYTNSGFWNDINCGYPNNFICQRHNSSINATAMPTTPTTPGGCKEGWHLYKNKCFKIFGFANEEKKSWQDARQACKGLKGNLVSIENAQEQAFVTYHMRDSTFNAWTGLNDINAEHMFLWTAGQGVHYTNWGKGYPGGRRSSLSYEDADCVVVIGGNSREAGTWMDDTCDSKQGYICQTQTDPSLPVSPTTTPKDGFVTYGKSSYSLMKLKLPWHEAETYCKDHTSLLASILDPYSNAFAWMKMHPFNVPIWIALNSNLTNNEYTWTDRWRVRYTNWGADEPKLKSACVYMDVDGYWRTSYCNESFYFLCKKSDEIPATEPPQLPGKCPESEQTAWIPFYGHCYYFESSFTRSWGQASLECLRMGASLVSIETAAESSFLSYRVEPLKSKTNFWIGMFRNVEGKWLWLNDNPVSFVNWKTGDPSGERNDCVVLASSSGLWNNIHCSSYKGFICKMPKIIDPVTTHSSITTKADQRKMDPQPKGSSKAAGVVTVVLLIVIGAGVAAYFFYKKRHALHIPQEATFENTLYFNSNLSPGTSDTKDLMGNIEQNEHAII
Method: Mice were anesthetized and intraperitoneally injected with 5 mL of PBS+1% BSA, the abdomen was massaged to detach macrophages and the peritoneal fluid was collected. This procedure typically yielded 5-9×10⁶ cells. Cells were concentrated to 1 mL in the same peritoneal fluid. For FAM-peptide incubation, the peptides were incubated for 30 minutes at 4° C. For antibody incubation the cells were incubated with antibody for 1 h at 4° C. A647 Rat anti-CCR2 (Biolegend, CA, USA. Catalog number 150603) was incubated for 1 h at 4° C. at a dilution of 1/200. FAM-peptides were incubated at a concentration of 0.5 μg/mL, and Rat anti-CD206 (Bio-Rad, CA, USA. Product code MCA2235GA) was incubated at a concentration of 10 μg/mL. Binding of FAM-peptides was monitored with 488 nm channel and CCR2 labeling was assessed in the 647 nm channel using A647 Anti-CCR2 (Biolegend, CA, USA). After incubation of FAM-Peptides or antibodies, the cells were washed 3 times at 4° C. with PBS-Tby centrifugation at 250 g for 6 minutes, followed by flow cytometry analysis (Accuri, BD Biosciences, CA, USA).
The effect of a blocking anti-CD206 antibody on FAM-UNO binding to peritoneal cells isolated from 4T1 tumor mice was studied. Flow cytometry experiments were performed by incubating FAM-peptide with the cells suspended in the peritoneal fluid; this i.p. fluid also contained glutathione (FIG. 24). […]

[4] = target: T3, recombinant mouse macrophage mannose receptor rmMMR/CD206 (mouse, UniProt Q61830 20-1388, limits assumed); assay: fluorescence anisotropy, in solution, kinetic mode
T3 construct: Bought recombinant protein; also called mouse recombinant CD206; MRC1
T3 sequence (looked up): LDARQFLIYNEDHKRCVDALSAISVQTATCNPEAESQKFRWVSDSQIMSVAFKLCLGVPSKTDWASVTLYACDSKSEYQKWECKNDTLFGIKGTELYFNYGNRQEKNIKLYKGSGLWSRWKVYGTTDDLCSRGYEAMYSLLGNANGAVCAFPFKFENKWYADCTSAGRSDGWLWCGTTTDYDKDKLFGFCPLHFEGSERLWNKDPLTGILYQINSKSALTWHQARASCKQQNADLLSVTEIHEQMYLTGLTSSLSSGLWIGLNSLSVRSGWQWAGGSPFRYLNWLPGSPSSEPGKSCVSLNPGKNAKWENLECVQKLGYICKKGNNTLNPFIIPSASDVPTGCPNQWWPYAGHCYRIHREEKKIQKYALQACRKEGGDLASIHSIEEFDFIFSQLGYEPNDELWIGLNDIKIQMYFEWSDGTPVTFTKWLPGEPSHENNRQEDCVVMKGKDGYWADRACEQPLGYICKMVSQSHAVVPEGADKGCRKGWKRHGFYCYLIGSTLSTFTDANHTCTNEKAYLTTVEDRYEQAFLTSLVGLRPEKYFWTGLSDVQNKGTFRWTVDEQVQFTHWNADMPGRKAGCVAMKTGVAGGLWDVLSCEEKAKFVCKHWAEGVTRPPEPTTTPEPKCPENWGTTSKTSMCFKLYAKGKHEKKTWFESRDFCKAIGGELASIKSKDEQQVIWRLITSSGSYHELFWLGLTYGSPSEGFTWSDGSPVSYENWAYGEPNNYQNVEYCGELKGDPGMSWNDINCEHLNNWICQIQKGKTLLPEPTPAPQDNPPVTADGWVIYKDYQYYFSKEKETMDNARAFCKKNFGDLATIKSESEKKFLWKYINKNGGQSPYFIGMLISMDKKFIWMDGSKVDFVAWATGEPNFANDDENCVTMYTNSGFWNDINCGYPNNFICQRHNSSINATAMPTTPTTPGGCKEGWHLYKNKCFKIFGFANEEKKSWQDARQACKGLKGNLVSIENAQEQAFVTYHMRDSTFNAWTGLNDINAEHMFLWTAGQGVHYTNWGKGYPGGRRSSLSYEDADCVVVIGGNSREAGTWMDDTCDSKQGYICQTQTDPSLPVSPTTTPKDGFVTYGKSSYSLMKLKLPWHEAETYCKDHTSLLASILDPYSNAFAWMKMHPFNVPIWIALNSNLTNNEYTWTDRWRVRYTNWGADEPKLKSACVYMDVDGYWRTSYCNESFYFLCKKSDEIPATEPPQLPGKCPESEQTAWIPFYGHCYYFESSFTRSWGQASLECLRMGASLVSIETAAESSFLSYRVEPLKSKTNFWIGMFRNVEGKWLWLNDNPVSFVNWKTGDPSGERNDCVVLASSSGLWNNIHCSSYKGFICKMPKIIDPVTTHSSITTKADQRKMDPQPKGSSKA

recombinant mouse CD163 = recombinant mouse CD163 (mouse, UniProt Q2VLH6 39-1045, limits assumed); assay: fluorescence anisotropy, in solution, kinetic mode
recombinant mouse CD163, sequence (Q2VLH6 39-1045 limits assumed): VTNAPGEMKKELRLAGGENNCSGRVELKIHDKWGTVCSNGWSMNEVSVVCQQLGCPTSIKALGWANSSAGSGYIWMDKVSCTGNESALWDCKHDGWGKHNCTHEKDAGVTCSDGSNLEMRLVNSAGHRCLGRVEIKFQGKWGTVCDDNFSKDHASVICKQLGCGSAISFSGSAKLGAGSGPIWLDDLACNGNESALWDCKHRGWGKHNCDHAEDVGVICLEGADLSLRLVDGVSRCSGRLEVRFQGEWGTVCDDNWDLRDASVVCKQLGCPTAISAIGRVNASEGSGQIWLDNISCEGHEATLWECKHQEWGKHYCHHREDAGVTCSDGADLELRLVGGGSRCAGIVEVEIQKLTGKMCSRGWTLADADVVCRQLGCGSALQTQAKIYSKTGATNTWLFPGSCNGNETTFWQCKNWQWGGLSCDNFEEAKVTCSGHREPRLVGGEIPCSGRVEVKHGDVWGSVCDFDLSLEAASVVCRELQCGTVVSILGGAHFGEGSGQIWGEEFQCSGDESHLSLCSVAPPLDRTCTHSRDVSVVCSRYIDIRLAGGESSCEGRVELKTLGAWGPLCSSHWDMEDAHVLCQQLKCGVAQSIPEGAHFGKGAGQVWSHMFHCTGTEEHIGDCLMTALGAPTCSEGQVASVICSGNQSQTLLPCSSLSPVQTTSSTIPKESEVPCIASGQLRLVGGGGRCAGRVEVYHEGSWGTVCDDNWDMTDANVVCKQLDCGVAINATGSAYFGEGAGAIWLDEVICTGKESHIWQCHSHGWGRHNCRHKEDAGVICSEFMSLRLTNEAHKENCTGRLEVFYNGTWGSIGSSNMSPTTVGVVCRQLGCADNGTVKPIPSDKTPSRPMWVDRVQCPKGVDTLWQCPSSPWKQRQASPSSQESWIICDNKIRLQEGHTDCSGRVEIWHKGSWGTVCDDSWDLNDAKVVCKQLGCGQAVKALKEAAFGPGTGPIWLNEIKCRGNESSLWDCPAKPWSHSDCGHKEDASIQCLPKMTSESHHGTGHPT

[5] = target: T3, recombinant mouse macrophage mannose …; assay: fluorescence anisotropy, in solution, 50 nM peptide and 1 µM protein
Method: In all experiments, FA signal measurements were done under pseudo first-order conditions with 50 nM singly labelled FAM peptides and 1 μM proteins. […] Assays were carried out in kinetic mode in a total volume of 30 μl at 25° C. on the PHERAstar (BMG Labtech, Germany) microplate reader using an optical module with excitation and emission filters of 485 nm (slit 10 nm) and 520 nm (slit 10 nm), respectively. Dual emission detection mode allows simultaneous recording of intensities that are parallel (l) and perpendicular (1) to the plane of excitation light. Sensitivities of channels (G factor) were corrected with gain adjustment of the photomultiplier tubes (PMTs) using fluorescein as a standard. The background fluorescence (receptor and buffer components in the absence of fluorescent ligand) was subtracted independently from all intensity channels. FA signals at time t after initiation of binding reaction was calculated as parameters r(t) from the equation: […]

rat anti-CD206 antibody (Bio-Rad, product code MCA2235GA)
reduction of FAM-UNO binding [1]: 25%

B1: FAM-UNO (cyclic, disulfide-bridged FAM-labeled CSPGAKVRC) (peptide)
peptide: {FAM-Ahx}-CSPGAKVRC
modifications: disulfide 1-9
notes: Cyclic CX7C peptide from a phage library, used as a synthetic FAM-labeled peptide without reduction; also called FAM-labeled UNO
binding result [2]: no binding (tested: 100 nM FAM peptide, 0.4 µM protein) | binding result [3]: binds

B2: FAM-CPMTDNE (control peptide) (peptide)
peptide: {FAM-Ahx}-CPMTDNE
notes: Control peptide of the fluorescence anisotropy assay
binding result [4]: no binding (tested: 50 nM FAM peptide, 1 µM protein)

{FAM-Ahx}-CSPGAK (also called linear CSPGAK) [FAM-CSPGAK]
binding result (recombinant mouse CD163): no binding (tested: 50 nM FAM peptide, 1 µM protein) | binding result [5]: binds
